Five molecules from patent US11994512B2, “Single-cell genomic methods to generate ex vivo cell systems that recapitulate in vivo biology with improved fidelity” (Massachusetts Institute of Technology, priority 2018, dated 2024) can be followed below.

This assay deals with intracellular proteome of ENR+CD and ENR organoids. The assay can be described thus: LC-MS/MS TMT proteomics of ENR+CD versus ENR organoids. As to conditions: for Average logFC / M1-1 Log2 Median Normalized / M1-2 Log2 Median Normalized / M2-1 Log2 Median Normalized / M2-2 Log2 Median Normalized: protein abundance, ENR+CD versus ENR organoids; for Average logFC: aggregate of the four sample pairs; for M1-1 Log2 Median Normalized: replicate M1-1; for M1-1 Log2 Median Normalized / M1-2 Log2 Median Normalized / M2-1 Log2 Median Normalized / M2-2 Log2 Median Normalized: log2 ratio; for M1-2 Log2 Median Normalized: replicate M1-2; for M2-1 Log2 Median Normalized: replicate M2-1; for M2-2 Log2 Median Normalized: replicate M2-2; for change: up = enriched in ENR+CD, down = enriched in ENR, FDR<0.05 and log fold change cut-off. In kind it is cell-based, C57BL/6 mice.

B1: P97449 (protein, UniProt P97449 1-966, looked up)
chain: MAKGFYISKTLGILGILLGVAAVCTIIALSVVYAQEKNRNAENSATAPTLPGSTSATTATTTPAVDESKPWNQYRLPKTLIPDSYRVILRPYLTPNNQGLYIFQGNSTVRFTCNQTTDVIIIHSKKLNYTLKGNHRVVLRTLDGTPAPNIDKTELVERTEYLVVHLQGSLVEGRQYEMDSQFQGELADDLAGFYRSEYMEGDVKKVVATTQMQAADARKSFPCFDEPAMKAMFNITLIYPNNLIALSNMLPKESKPYPEDPSCTMTEFHSTPKMSTYLLAYIVSEFKNISSVSANGVQIGIWARPSAIDEGQGDYALNVTGPILNFFAQHYNTSYPLPKSDQIALPDFNAGAMENWGLVTYRESSLVFDSQSSSISNKERVVTVIAHELAHQWFGNLVTVAWWNDLWLNEGFASYVEYLGADYAEPTWNLKDLMVLNDVYRVMAVDALASSHPLSSPADEIKTPDQIMELFDSITYSKGASVIRMLSSFLTEDLFKKGLSSYLHTYQYSNTVYLDLWEHLQKAVNQQTAVQPPATVRTIMDRWILQMGFPVITVNTNTGEISQKHFLLDSKSNVTRPSEFNYIWIAPIPFLKSGQEDHYWLDVEKNQSAKFQTSSNEWILLNINVTGYYLVNYDENNWKKLQNQLQTDLSVIPVINRAQIIHDSFNLASAKMIPITLALDNTLFLVKEAEYMPWQAALSSLNYFTLMFDRSEVYGPMKRYLKKQVTPLFFYFQNRTNNWVNRPPTLMEQYNEINAISTACSSGLKECRDLVVELYSQWMKNPNNNTIHPNLRSTVYCNAIAFGGEEEWNFAWEQFRNATLVNEADKLRSALACSKDVWILNRYLSYTLNPDYIRKQDTTSTIISIASNVAGHPLVWDFVRSNWKKLFENYGGGSFSFANLIQGVTRRFSSEFELQQLEQFKADNSATGFGTGTRALEQALEKTRANIDWVKENKDAVFKWFTENSS
modifications: full-length
As for B1, the “Average logFC” value came out at 1.247, the “M1-1 Log2 Median Normalized” value was determined as 1.246, the “M1-2 Log2 Median Normalized” value is listed as 1.528 and the “M2-1 Log2 Median Normalized” value turned out to be 1.2875. Further, the “M2-2 Log2 Median Normalized” value is on record as 0.807 and the change entry was “up”.

B2: Q03157 (protein, UniProt Q03157 1-654, looked up)
chain: MGPTSPAARGQGRRWRPPPLPLLLPLSLLLLRAQLAVGNLAVGSPSAAEAPGSAQVAGLCGRLTLHRDLRTGRWEPDPQRSRRCLLDPQRVLEYCRQMYPELHIARVEQAAQAIPMERWCGGTRSGRCAHPHHEVVPFHCLPGEFVSEALLVPEGCRFLHQERMDQCESSTRRHQEAQEACSSQGLILHGSGMLLPCGSDRFRGVEYVCCPPPATPNPSGMAAGDPSTRSWPLGGRAEGGEDEEEVESFPQPVDDYFVEPPQAEEEEEEEEERAPPPSSHTPVMVSRVTPTPRPTDGVDVYFGMPGEIGEHEGFLRAKMDLEERRMRQINEVMREWAMADSQSKNLPKADRQALNEHFQSILQTLEEQVSGERQRLVETHATRVIALINDQRRAALEGFLAALQGDPPQAERVLMALRRYLRAEQKEQRHTLRHYQHVAAVDPEKAQQMRFQVQTHLQVIEERMNQSLGLLDQNPHLAQELRPQIQELLLAEHLGPSELDASVPGSSSEDKGSLQPPESKDDPPVTLPKGSTDQESSSSGREKLTPLEQYEQKVNASAPRGFPFHSSDIQRDELAPSGTGVSREALSGLLIMGAGGGSLIVLSLLLLRKKKPYGTISHGVVEVDPMLTLEEQQLRELQRHGYENPTYRFLEERP
modifications: full-length
Regarding B2, the “Average logFC” value was found to be 1.178, the “M1-1 Log2 Median Normalized” value came to 1.177, the “M1-2 Log2 Median Normalized” value was determined as 0.671 and the “M2-1 Log2 Median Normalized” value was 1.2695. The “M2-2 Log2 Median Normalized” value was 1.559 and the change result is on record as “up”.

B3: Q00623 (protein, UniProt Q00623 1-264, looked up)
chain: MKAVVLAVALVFLTGSQAWHVWQQDEPQSQWDKVKDFANVYVDAVKDSGRDYVSQFESSSLGQQLNLNLLENWDTLGSTVSQLQERLGPLTRDFWDNLEKETDWVRQEMNKDLEEVKQKVQPYLDEFQKKWKEDVELYRQKVAPLGAELQESARQKLQELQGRLSPVAEEFRDRMRTHVDSLRTQLAPHSEQMRESLAQRLAELKSNPTLNEYHTRAKTHLKTLGEKARPALEDLRHSLMPMLETLKTQVQSVIDKASETLTAQ
modifications: full-length
With B3, the “Average logFC” value was −2.027, the “M1-1 Log2 Median Normalized” value is −1.311, the “M1-2 Log2 Median Normalized” value is recorded as −2.229 and the “M2-1 Log2 Median Normalized” value was −2.6175. For the same molecule, the “M2-2 Log2 Median Normalized” value is −1.952 and the change entry is “down”.

B4: Q05186 (protein, UniProt Q05186 1-325, looked up)
chain: MARGGRLGLALGLLLALVLALRAKPTVRKERVVRPDSELGERPPEDNQSFQYDHEAFLGKEDSKTFDQLSPDESKERLGKIVDRIDSDGDGLVTTEELKLWIKRVQKRYIYDNVAKVWKDYDRDKDEKISWEEYKQATYGYYLGNPAEFHDSSDHHTFKKMLPRDERRFKASDLDGDLTATREEFTAFLHPEEFEHMKEIVVLETLEDIDKNGDGFVDQDEYIADMFSHEDNGPEPDWVLSEREQFNDFRDLNKDGKLDKDEIRHWILPQDYDHAQAEARHLVYESDKNKDEMLTKEEILDNWNMFVGSQATNYGEDLTKNHDEL
modifications: full-length
With B4, the “Average logFC” value is 1.307, the “M1-1 Log2 Median Normalized” value is on record as 1.602, the “M1-2 Log2 Median Normalized” value worked out at 1.092 and the “M2-1 Log2 Median Normalized” value worked out at 1.0235. The “M2-2 Log2 Median Normalized” value turned out to be 1.511 and the change entry is given as “up”.

B5: P98063 (protein, UniProt P98063 1-991, looked up)
chain: MPGVARPPLPLLSLPLLLLLLLLPRAGRPLDLADYTYDLGEEDAPELLNYKDPCKAAAFLGDIALDEEDLRAFQVQQAAVLRQQTARRPSIKAAGNSSALGGQGTSGQPQRESRGRWRGRPRSRRAATSRPERVWPDGVIPFVIGGNFTGSQRAVFRQAMRHWEKHTCVTFLERTDEDSYIVFTYRPCGCCSYVGRRGGGPQAISIGKNCDKFGIVVHELGHVIGFWHEHTRPDRDRHVSIVRENIQPGQEYNFLKMEVQEVESLGETYDFDSIMHYARNTFSRGIFLDTIVPKYEVNGVKPSIGQRTRLSKGDIAQARKLYKCPACGETLQDSTGNFSSPEYPNGYSAHMHCVWRISVTPGEKIILNFTSMDLYRSRLCWYDYVEVRDGFWRKAPLRGRFCGGKLPEPIVSTDSRLWVEFRSSSNWVGKGFFAVYEAICGGDVKKDNGHIQSPNYPDDYRPSKVCIWRIQVSEGFHVGLTFQSFEIERHDSCAYDYLEVRDGHSESSNLIGRYCGYEKPDDIKSTSSRLWLKFVSDGSINKAGFAVNFFKEVDECSRPNRGGCEQRCLNTLGSYKCSCDPGYELAPDKRRCEAACGGFLTKLNGSITSPGWPKEYPPNKNCIWQLVAPTQYRISLQFDFFETEGNDVCKYDFVEVRSGLTADSKLHGKFCGSEKPEVITSQYNNMRVEFKSDNTVSKKGFKAHFFSDKDECSKDNGGCQQDCVNTFGSYECQCRSGFVLHDNKHDCKEAGCEHKVTSTSGTITSPNWPDKYPSKKECTWAISSTPGHRVKLTFVEMDIESQPECAYDHLEVFDGRDAKAPVLGRFCGSKKPEPVLATGNRMFLRFYSDNSVQRKGFQASHSTECGGQVRADVKTKDLYSHAQFGDNNYPGGVDCEWVIVAEEGYGVELVFQTFEVEEETDCGYDYIELFDGYDSTAPRLGRYCGSGPPEEVYSAGDSVLVKFHSDDTISKKGFHLRYTSTKFQDTLHSRK
modifications: full-length
As to B5, the “Average logFC” value came out at 1.311, the “M1-1 Log2 Median Normalized” value is reported as 1.296, the “M1-2 Log2 Median Normalized” value is 1.342 and the “M2-1 Log2 Median Normalized” value is recorded as 1.2215. Moreover, the “M2-2 Log2 Median Normalized” value amounted to 1.383 and the change entry is “up”.
